Data on nine molecules can be found in patent US20250270341A1 (Alector, published 2025).

The target in one experiment is T1, huCD98hc ECD Avi-His (human, UniProt P08195 105-529).
T1 construct: biotinylated on the Avi tag where captured on streptavidin; also called Human CD98-AVI-His; Human CD98hc-AVI-His
T1 sequence: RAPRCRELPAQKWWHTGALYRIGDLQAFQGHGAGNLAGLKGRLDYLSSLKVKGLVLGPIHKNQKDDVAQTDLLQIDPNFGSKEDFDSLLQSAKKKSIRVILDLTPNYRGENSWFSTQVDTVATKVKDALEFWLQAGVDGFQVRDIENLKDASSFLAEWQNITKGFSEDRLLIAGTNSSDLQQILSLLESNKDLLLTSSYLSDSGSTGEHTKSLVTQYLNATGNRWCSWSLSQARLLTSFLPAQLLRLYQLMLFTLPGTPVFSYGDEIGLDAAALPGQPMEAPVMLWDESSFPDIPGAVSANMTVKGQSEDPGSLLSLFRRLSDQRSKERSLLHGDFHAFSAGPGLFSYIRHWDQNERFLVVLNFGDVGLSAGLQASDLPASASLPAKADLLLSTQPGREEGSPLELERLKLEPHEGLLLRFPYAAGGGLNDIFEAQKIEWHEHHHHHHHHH
Put plainly: ELISA, hybridoma supernatant. As for the experimental part:
(§1) Briefly, 96-well polystyrene plates were coated with 5 μg/ml of streptavidin (Thermo Fisher, Cat #PI21125) in coating buffer (0.05M carbonate buffer, pH 9.6, Sigma, Cat #C3041) overnight at 4° C. Coated plates were then blocked with ELISA diluent (PBS+0.5% BSA+0.05% Tween20) for one hour. Blocking buffer was removed and human, cyno, or mouse Avi-His-tagged CD98hc and Avi-His-tagged human TfR polypeptides were added at 1 μg/ml in ELISA diluent and captured for 1 hour at room temperature. After washing three times with 300 μl of PBST (PBS+0.05% Tween20, Thermo 28352), the hybridoma cell culture supernatants or 1 μg/ml of commercially available purified mouse anti-human CD98hc monoclonal antibody (Sigma Aldrich, Cat #SAB 4700503) and rat anti-mouse CD98hc antibody (Bio-Rad Laboratories, Hercules, CA, Cat #MCA2684) were added (50 μl/well) to each well. After 30 minutes of incubation at room temperature, the plates were washed three times with 300 μl of PBST. […] After a final set of washes (3×300 μl in PBST), 50 μl/well of BioFx TMB substrate (Surmodics, Eden Praire, MN, Cat #TMBW-1000-01) was added to the wells. The reaction was then quenched after 5-10 mins with 50 μl/well of 2N sulfuric acid. The plates were read for absorbance at 450 nm on a SpectraMax M5 (Molecular Devices, Sunnyvale, CA) using SoftMax Pro software.

For a further experiment, the target named is T2, muCD98hc ECD Avi-His (mouse, UniProt P10852 100-526).
T2 construct: biotinylated on the Avi tag where captured on streptavidin; also called Mouse CD98-AVI-His; Mouse CD98hc-AVI-His
T2 sequence: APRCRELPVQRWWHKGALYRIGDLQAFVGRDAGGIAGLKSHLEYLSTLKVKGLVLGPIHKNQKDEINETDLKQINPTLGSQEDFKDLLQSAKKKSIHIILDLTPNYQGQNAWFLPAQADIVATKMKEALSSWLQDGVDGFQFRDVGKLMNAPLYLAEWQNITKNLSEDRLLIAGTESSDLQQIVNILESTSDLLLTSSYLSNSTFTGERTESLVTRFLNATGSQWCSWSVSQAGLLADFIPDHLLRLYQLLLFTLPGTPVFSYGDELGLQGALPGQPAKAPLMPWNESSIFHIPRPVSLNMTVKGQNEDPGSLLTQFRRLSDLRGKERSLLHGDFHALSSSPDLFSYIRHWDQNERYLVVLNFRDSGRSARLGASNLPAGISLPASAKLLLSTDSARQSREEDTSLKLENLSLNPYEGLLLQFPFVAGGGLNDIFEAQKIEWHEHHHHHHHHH
Put plainly: ELISA, hybridoma supernatant. As for the experimental part: as §1

Another experiment has as its target T3, Cyno CD98hc ECD Avi-His (cynomolgus macaque, UniProt P08195 105-529 (human entry)).
T3 construct: biotinylated on the Avi tag where captured on streptavidin; also called Cyno CD98-AVI-His; Cyno CD98hc-AVI-His
T3 chain: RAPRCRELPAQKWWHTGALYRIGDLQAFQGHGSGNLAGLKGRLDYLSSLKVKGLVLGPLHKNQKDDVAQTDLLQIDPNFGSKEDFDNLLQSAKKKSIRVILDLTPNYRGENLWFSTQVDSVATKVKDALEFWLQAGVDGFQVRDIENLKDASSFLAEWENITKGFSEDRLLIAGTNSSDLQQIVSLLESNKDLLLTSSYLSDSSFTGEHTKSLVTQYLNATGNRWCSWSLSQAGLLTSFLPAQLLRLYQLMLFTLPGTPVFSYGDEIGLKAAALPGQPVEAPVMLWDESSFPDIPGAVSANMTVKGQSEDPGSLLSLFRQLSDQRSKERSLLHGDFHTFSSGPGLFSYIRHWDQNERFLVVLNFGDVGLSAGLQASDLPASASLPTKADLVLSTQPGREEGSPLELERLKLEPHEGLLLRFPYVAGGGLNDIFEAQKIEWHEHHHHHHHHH
Put plainly: ELISA, hybridoma supernatant. As to the method:
as §1
(In general: An ELISA detects its analyte on a solid surface through an enzyme-linked reagent.)

Experiment [1] concerns the target T4, Human TfR-AVI-His (control) (human, UniProt P02786 89-760).
T4 construct: control protein; also called Avi-His-tagged human TfR; human transferrin receptor
As to the kind of experiment: ELISA, hybridoma supernatant. As to the method: as §1

For experiment [2], the target named is T5, Full length mouse CD98hc on CHO cells (mouse, UniProt P10852 1-526).
T5 construct: CHO cells stably overexpressing it; also called CHO-mouse CD98hc; CHO-mCD98hc
T5 sequence: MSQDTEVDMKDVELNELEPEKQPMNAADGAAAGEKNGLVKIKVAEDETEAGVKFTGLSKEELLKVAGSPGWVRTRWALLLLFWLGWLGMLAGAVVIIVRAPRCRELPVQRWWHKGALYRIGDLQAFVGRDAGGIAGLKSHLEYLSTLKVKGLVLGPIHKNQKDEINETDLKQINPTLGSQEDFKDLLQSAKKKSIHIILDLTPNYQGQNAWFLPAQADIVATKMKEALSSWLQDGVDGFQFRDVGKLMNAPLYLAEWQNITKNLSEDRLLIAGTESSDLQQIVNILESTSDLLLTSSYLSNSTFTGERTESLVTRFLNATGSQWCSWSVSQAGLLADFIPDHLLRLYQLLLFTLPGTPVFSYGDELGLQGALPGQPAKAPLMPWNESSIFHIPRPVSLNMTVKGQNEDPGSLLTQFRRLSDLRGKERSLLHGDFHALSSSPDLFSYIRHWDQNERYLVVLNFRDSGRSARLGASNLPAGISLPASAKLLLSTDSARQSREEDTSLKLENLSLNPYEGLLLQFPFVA
Put plainly: FACS, hybridoma supernatant. (A flow cytometer gives signals particle by particle.)

T4 sequence (P02786 89-760 limits assumed): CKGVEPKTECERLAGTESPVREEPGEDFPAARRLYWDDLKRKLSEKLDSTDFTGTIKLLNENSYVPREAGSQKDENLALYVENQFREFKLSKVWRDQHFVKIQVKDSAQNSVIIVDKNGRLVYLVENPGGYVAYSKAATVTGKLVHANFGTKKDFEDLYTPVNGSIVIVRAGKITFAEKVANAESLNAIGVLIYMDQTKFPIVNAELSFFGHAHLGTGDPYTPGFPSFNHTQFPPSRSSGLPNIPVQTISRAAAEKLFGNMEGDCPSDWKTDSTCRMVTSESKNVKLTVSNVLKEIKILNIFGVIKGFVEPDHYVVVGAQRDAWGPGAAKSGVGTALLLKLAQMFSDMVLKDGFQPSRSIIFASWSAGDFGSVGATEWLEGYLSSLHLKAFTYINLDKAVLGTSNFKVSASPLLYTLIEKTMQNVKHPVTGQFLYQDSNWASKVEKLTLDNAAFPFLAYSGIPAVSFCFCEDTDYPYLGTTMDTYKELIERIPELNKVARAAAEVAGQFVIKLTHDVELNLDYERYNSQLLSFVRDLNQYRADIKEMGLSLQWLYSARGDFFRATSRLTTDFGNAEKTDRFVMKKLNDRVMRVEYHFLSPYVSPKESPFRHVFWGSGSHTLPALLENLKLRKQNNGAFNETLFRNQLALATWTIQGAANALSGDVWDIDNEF

B1: CD98HC.04.045 (antibody, V domains shown)
VH: QIQLVQSGPELKKPGETVKISCKASGYSITNFGMNWVKQAPGKGLKWMGWVNTYTGEPTYADDFKGRFAFSLETSASTASLQINNLKNEDTATYFCTRSVITYTMDYWGQGTSVTVSS
VL: DIQLTQSPSSLSASLGERVSLTCRASQEISGYLSWLQQKPDGTIKRLIYAASTLDSGVPKRFSGSRSGSDYSLTISSLESEDFADYYCLQYASYPRTFGGGTKVEIK
notes: hybridoma IgG
Turning to B1, the OD450 with huCD98hc ECD Avi-His came to 1.51; in the experiment with muCD98hc ECD Avi-His it was 0.0764; with Cyno CD98hc ECD Avi-His, 1.34; in experiment [1], 0.103. Besides, the “MFI ratio over secondary antibody” value in experiment [2] was 1.2.

B2: CD98HC.04.013 (antibody, V domains shown)
VH: EVQLVESGGDLGMPGGSLKLSCAASGFALSGYDMSWVRQTPDKRLEWVAYLSSGGGSTYYPYTVKGRFTISRDNAQNTLYLQMSSLKSEDTAIYYCARHSEVRPWFGYWGQGTLVTVSA
VL: DIVMSQSPSSLAVSVGEKVTLTCKSSQSLLYSGNQKNYLAWYQQNPGQSPKLLIYWASTRESGVPDRFTGSGSGTDFTLTISSVKAEDLAVYYCQQYYTYPPTFGAGTKLGLK
notes: hybridoma IgG
For B2, the OD450 in the experiment with huCD98hc ECD Avi-His came out at 1.17; with muCD98hc ECD Avi-His, 0.0717; in the experiment with Cyno CD98hc ECD Avi-His, 2.04; in experiment [1], 0.0667. Also, the “MFI ratio over secondary antibody” value in experiment [2] turned out to be 1.1.

B3: CD98HC.04.062 (antibody, V domains shown)
VH: EVQLVESGGDLVKPGGSLKLSCTASRFAFSTYDMSWVRQTPEKRLEWVAYISSGGGSTYFPDTVKGRFTISRDNAKNTLYLQMSSLKSEDTAMYYCARQDGHYPWFPYWGQGTLVTVSA
VL: DIVMSQSPSSLAVSVGEKVTMSCKSSQSLLYSGNQKTYLAWYQQKPGQSPKPLIYWASTRESGIPDRFTGSGSGTDFTLTISSVKAEDLAVYYCQQYYSYPPTFGAGTKLELK
notes: hybridoma IgG
Turning to B3, the OD450 with huCD98hc ECD Avi-His was 1.61; in the experiment with muCD98hc ECD Avi-His it was 0.0607; with Cyno CD98hc ECD Avi-His, 1.63; in experiment [1], 0.0561. In addition, the “MFI ratio over secondary antibody” value in experiment [2] amounted to 1.3.

B4: CD98HC.04.058 (antibody, V domains shown)
VH: QVQLQQSGAELVRPGVSVKISCKASGYTFTDHTMHWVKQSHARSLEWIGVISTYFGDASYNPKFKGKATMTVDKSSNTAYMELARLTSEDSAIYYCARVGGRLRLGYYFDYWGQGTTLTVSS
VL: NIMMTQSPSSLAVSAGEKVTMNCKSSQTVLYSSNQKNYLAWYQQKPGQSPKLLIYWASTRESGVPDRFTGSGSGTDFTLTISSVQVEDLAVYYCHQYLSSYTFGGGTKLEIK
notes: hybridoma IgG
As to B4, the OD450 with huCD98hc ECD Avi-His was found to be 1.34; with muCD98hc ECD Avi-His it was 0.121; in the experiment with Cyno CD98hc ECD Avi-His, 1.73; in experiment [1] it was 0.0976. For the same molecule, the “MFI ratio over secondary antibody” value in experiment [2] is 1.2.

B5: CD98HC.04.063 (antibody, V domains shown)
VH: EVKLEESGGGLVQPGGSMILSCVASGFTFSNSWMNWVRQSPEKGLEWVAEIRLRSNNYATHYAESVKGRFTISRDDSKSTVYLQMNNLRAEDTGIYYCSRGDPGAYWGQGTLVTVSA
VL: DIQMTQSSSYLSVSLGNRVTITCKASDHIKNWLAWFQQKPGNAPRLLISGATILETGVPSRFSGSGSGKDYTLSITSLQTEDVATYYCQQYWSTPYTFGGGTKLEIK
notes: hybridoma IgG
Regarding B5, the OD450 with huCD98hc ECD Avi-His came to 1.66; with muCD98hc ECD Avi-His, 0.0738; with Cyno CD98hc ECD Avi-His it was 1.91; in experiment [1], 0.0629. Moreover, the “MFI ratio over secondary antibody” value in experiment [2] was determined as 1.2.

B6: CD98HC.04.064 (antibody, V domains shown)
VH: QVQLQQPGAELVRPGASVKLSCKASGYTFTSYWMNWVRQRPGQGLEWIGLIDPSDSETHYNQMFKDRATLTVDKSSSTAYMQLSSLTSADPAVYYCARASYGKGYFDYWGQGTTLTVSS
VL: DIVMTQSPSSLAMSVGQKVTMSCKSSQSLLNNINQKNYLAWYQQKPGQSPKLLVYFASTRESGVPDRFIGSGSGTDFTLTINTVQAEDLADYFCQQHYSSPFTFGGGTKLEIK
notes: hybridoma IgG
Regarding B6, the OD450 stood at 1.7 with huCD98hc ECD Avi-His, 0.073 with muCD98hc ECD Avi-His, 1.76 with Cyno CD98hc ECD Avi-His and 0.0639 in experiment [1]. In addition, in experiment [2], the “MFI ratio over secondary antibody” value came to 1.2.

B7: CD98HC.04.018 (antibody, V domains shown)
VH: QIQLVQSGPELKKPGETVKISCKASGYTFRNYGMNWVKQAPGKGLKWMGWINTYTGEPTYAEDFKGRFAFSLETSASTAYLQINKLKNEDEATYFCARGEAHWYFDVWGAGTTVTVSS
VL: QIVLTQSPAIMSASLGERVTMTCTASSSVSSSYLYWYQQKPGSSPKLWIYSIFNLASGVPARFSGSGSGTSYSLTISSMEAEDAATYYCHQYHRSPPTFGGGTKLEIK
notes: hybridoma IgG
Consider B7, for which the OD450 with huCD98hc ECD Avi-His turned out to be 1.64; in the experiment with muCD98hc ECD Avi-His, 0.079; with Cyno CD98hc ECD Avi-His, 1.97; in experiment [1], 0.0717. In addition, the “MFI ratio over secondary antibody” value in experiment [2] was found to be 1.1.

B8: CD98HC.04.046 (antibody, V domains shown)
VH: QIQLVQSGPVLKKPGETVKISCKASGYTFTNFGMNWVKQAPGKGLKWMGWIDTYTREPTYVDDFKGRFAFSLETSVTTAYLQINDLKNEDSATYFCARGESHWYFDVWGAGTTVTVSS
VL: QIVLTQSPAIMSASLGERVTMTCIVSSSVSSSYLYWYQQKPGSSPKLWIYSTSILASGVPGRFSGSGSGTSYSLTISSMEAEDAATYYCHQYHRSPPTFGGGTKLEIK
notes: hybridoma IgG
As for B8, the OD450 with huCD98hc ECD Avi-His came out at 1.38; with muCD98hc ECD Avi-His it was 0.0817; in the experiment with Cyno CD98hc ECD Avi-His, 1.88; in experiment [1], 0.0719. The “MFI ratio over secondary antibody” value in experiment [2] was found to be 1.2.

B9: CD98HC.04.022 (antibody, V domains shown)
VH: EVQLQQSGAELVKPGASVKLSCTASGFNIKDTFMHWMKQRPEQGLEWIGRIDPANANTRYDPKFQGKATITTDTSSNTAYLQLSSLTSEDTAVYYCARDVYYDVWGAGTTVTVSS
VL: DILMTQSPSSMSVSLGDTVTITCHASQGISSNIGWLQQKPGRSFKGLIYHGSNLEDGVPSRFTGSGSGTDYSLTISGLESEDFADYYCVQYAQFPRTFGGGTKLEIQ
notes: hybridoma IgG
Regarding B9, the OD450 with huCD98hc ECD Avi-His turned out to be 1.36; in the experiment with muCD98hc ECD Avi-His, 0.0554; with Cyno CD98hc ECD Avi-His it was 1.89; in experiment [1] it was 0.0533. Also, the “MFI ratio over secondary antibody” value in experiment [2] was 1.1.
